From the supplement of paper PMC10065799, “High-throughput profiling of sequence recognition by tyrosine kinases and SH2 domains using bacterial peptide display” (eLife, 2023)

How the values were obtained:
c-Src = assay: phosphorylation enrichment, bacterial display (enrichment ratio); higher = better substrate or ligand; peptides without Tyr show the background
Hck = Hck (UniProt P08631); assay: as above
Fer (mouse) = assay: as above
c-Abl (mouse) = assay: as above
EPHB2 = EPHB2 (UniProt P29323); assay: as above
EPHB1 = EPHB1 (UniProt P54762); assay: as above
FGFR3 = FGFR3 (UniProt P22607); assay: as above
Fyn = Fyn (UniProt P06241); assay: as above
MERTK = MERTK (UniProt Q12866); assay: as above
Jak2 = Jak2 (UniProt O60674); assay: as above
Fes = Fes (UniProt P07332); assay: as above
FGFR1 = FGFR1 (UniProt P11362); assay: as above
AncSZ = assay: as above
Grb2 SH2 = Grb2 SH2 (UniProt P62993); assay: SH2 binding enrichment of the phosphorylated peptide, bacterial display (enrichment ratio); higher = better substrate or ligand; peptides without Tyr show the background
c-Src SH2 = assay: as above
SHP2-C SH2 = assay: as above
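For SH2 binding enrichment of the phosphorylated peptide, bacterial display in this document: peptide library displayed on the E. coli surface as eCPX fusions, selected cells deep-sequenced, score is each peptide's frequency after selection divided by its frequency in the input.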
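For phosphorylation enrichment, bacterial display in this document: 11-residue human phosphosite peptides and single-mutation variants displayed on the E. coli surface, counted by deep sequencing, each peptide's frequency after selection divided by its frequency in the unselected input library; frequency after pTyr selection over input frequency; kinase dosed for 20-30% of maximal phosphorylation in three min.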

FGFR1, sequence (P11362 whole entry, looked up): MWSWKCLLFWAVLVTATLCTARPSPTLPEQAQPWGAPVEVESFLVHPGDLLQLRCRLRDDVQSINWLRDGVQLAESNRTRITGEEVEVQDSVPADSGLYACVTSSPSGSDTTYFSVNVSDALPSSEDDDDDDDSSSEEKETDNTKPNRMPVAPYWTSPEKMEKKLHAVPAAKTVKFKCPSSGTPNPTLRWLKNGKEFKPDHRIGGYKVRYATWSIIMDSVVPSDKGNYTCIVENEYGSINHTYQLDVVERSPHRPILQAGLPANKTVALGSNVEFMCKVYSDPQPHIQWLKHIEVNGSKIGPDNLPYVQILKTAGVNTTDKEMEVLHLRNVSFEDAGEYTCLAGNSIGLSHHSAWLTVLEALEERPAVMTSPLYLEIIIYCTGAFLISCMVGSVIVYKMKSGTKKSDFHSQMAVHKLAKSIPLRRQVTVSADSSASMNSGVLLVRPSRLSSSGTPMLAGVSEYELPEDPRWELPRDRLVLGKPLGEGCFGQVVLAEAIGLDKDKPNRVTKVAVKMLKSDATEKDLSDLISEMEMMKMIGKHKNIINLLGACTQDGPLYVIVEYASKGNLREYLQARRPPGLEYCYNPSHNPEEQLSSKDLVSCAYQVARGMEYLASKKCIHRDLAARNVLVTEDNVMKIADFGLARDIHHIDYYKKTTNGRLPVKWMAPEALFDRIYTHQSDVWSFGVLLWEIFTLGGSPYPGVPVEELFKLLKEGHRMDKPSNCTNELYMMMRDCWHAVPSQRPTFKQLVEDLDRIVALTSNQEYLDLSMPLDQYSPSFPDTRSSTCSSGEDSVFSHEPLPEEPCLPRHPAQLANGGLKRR
Fes, sequence (P07332 whole entry, looked up): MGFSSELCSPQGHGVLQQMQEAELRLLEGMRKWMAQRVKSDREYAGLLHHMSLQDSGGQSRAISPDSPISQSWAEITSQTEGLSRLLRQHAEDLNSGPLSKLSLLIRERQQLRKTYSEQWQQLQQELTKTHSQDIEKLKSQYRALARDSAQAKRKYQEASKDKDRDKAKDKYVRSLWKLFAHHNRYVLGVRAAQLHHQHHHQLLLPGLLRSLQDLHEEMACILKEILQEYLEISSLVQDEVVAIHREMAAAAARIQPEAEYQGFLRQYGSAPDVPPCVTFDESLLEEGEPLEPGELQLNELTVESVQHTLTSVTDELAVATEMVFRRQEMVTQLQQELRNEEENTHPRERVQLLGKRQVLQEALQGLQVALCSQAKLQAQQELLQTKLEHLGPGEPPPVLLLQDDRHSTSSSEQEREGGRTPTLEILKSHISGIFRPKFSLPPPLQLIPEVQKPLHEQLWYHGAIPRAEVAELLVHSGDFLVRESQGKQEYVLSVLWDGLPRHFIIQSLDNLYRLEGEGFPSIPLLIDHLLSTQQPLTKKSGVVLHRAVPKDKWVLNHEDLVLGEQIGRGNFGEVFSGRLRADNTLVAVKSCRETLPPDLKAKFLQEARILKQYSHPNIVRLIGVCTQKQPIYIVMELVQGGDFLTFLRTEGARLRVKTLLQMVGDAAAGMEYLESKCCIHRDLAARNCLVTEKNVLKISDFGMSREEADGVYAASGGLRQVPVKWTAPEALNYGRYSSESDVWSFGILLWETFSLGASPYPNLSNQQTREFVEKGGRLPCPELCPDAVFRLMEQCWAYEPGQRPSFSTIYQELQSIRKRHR
Jak2, sequence (O60674 whole entry, looked up): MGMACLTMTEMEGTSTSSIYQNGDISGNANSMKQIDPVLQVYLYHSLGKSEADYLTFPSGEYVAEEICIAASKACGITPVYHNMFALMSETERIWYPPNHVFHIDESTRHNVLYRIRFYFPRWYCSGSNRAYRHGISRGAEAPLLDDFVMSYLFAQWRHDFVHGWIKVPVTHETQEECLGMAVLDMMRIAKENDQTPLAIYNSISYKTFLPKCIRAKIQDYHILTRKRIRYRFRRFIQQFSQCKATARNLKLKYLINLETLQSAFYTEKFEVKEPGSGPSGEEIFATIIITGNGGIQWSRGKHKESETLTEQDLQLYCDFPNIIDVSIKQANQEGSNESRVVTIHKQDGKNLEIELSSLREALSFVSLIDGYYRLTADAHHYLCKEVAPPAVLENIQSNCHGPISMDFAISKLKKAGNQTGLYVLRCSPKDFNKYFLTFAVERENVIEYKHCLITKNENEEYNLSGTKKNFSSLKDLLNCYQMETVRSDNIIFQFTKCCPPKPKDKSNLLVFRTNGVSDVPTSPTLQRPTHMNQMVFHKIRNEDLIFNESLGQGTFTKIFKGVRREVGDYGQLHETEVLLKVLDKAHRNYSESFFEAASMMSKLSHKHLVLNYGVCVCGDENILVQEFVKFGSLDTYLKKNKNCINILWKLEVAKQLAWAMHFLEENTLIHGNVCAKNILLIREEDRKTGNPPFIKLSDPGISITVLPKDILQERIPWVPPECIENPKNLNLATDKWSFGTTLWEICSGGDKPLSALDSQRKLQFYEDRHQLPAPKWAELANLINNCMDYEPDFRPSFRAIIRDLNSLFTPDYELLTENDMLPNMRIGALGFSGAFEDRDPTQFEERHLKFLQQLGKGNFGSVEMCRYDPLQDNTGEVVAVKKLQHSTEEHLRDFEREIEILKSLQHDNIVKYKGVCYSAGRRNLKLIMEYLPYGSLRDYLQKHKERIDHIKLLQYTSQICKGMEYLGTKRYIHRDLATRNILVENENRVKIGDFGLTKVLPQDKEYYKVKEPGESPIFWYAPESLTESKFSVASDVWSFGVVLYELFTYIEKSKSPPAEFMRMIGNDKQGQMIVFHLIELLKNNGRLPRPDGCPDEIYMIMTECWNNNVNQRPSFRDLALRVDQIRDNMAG
EPHB1, sequence (P54762 whole entry, looked up): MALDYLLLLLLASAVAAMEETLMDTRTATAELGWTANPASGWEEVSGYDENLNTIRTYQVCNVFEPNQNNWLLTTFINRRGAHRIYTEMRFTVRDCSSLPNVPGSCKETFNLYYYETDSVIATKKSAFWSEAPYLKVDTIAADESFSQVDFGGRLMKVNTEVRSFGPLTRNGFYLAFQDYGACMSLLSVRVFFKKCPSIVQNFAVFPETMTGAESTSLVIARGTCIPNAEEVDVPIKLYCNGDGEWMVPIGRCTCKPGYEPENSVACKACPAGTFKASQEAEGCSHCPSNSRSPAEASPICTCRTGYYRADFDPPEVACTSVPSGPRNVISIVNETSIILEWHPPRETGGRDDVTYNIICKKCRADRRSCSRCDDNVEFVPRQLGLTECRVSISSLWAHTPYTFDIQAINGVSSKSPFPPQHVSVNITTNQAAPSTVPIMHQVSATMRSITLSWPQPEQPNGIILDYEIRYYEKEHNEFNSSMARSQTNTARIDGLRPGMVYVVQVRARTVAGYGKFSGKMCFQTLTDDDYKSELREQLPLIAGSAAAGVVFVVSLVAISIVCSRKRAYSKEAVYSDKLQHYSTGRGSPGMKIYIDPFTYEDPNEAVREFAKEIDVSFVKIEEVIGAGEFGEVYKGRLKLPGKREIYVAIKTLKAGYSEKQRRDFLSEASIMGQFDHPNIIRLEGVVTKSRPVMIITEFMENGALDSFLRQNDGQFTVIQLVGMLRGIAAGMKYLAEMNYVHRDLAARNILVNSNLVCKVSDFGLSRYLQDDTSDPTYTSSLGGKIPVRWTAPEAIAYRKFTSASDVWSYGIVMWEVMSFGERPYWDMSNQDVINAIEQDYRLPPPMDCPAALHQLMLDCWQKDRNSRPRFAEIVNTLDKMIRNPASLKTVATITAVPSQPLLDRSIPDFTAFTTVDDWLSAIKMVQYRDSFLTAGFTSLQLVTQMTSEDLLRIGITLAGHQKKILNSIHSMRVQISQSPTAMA
Hck, sequence (P08631 whole entry, looked up): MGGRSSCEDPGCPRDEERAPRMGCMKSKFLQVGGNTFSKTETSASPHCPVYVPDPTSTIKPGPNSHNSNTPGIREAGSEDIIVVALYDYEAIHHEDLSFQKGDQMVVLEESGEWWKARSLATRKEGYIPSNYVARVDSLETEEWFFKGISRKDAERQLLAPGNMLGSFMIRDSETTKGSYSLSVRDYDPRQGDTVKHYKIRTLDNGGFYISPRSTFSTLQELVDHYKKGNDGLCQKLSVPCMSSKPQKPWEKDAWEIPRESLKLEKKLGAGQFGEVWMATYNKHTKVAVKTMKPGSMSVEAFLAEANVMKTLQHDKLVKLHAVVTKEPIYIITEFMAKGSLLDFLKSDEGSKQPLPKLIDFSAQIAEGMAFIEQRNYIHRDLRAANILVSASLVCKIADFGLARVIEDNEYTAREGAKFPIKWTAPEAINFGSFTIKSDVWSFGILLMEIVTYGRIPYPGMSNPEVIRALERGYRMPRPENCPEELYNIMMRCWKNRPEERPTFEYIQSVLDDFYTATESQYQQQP
FGFR3, sequence (P22607 whole entry, looked up): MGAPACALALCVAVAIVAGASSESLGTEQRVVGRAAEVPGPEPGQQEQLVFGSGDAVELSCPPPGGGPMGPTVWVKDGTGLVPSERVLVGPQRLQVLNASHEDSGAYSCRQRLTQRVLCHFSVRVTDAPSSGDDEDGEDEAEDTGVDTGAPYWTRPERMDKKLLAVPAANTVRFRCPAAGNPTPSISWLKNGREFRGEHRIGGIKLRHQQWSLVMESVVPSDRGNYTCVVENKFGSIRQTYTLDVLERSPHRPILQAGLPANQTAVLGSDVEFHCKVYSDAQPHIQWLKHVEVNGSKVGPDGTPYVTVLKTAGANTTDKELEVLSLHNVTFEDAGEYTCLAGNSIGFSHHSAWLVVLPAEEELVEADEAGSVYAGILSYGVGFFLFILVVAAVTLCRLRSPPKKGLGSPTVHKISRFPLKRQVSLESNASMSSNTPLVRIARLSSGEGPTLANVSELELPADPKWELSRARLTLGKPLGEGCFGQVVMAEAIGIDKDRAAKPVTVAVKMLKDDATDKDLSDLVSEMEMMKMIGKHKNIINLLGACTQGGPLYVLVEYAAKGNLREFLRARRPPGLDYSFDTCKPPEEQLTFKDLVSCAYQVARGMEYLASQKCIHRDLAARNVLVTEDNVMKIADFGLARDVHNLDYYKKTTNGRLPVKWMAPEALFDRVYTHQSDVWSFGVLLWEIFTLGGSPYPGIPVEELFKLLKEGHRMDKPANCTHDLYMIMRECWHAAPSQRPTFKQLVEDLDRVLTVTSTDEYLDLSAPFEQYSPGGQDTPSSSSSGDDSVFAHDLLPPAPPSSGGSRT

Row | Sequence | phosphorylation enrichment (c-Src) | phosphorylation enrichment (Hck) | phosphorylation enrichment (Fer (mouse)) | phosphorylation enrichment (c-Abl (mouse)) | phosphorylation enrichment (EPHB2) | phosphorylation enrichment (EPHB1) | phosphorylation enrichment (FGFR3) | phosphorylation enrichment (Fyn) | phosphorylation enrichment (MERTK) | phosphorylation enrichment (Jak2) | phosphorylation enrichment (Fes) | phosphorylation enrichment (FGFR1) | phosphorylation enrichment (AncSZ) | SH2 binding enrichment (Grb2 SH2) | SH2 binding enrichment (c-Src SH2) | SH2 binding enrichment (SHP2-C SH2)
1 | QKMFDYLKEKK [RYR2_Y3780_L3778F] | 0.471 | 0.471 | 0.574 | 0.763 | 0.438 | 0.558 | 0.595 | 0.445 | 0.403 | 0.805 | 0.958 | 0.459 | 0.797 | 0.743 | 0.363 | 0.738
2 | QLLIKYPPEEV [ZZZ3_Y670] | 0.604 | 0.566 | 0.473 | 1.25 | 0.816 | 0.898 | 0.95 | 0.7 | 0.858 | 1.39 | 1.62 | 0.811 | 1.25 | 0.848 | 0.626 | 1
3 | QLYGAYLRIHA [BSCL2_Y213] | 3.58 | 4.32 | 0.536 | 0.915 | 1.3 | 1 | 1.12 | 7.21 | 0.905 | 1.2 | 1.68 | 1.02 | 1.95 | 1.27 | 1.13 | 1.35
4 | QMVGMYAFSFM [AVPR2_Y124_S126F_YF] | 1.28 | 1.06 | 3.54 | 0.912 | 3.08 | 1.95 | 1.63 | 1.16 | 5.8 | 1.15 | 1.65 | 0.846 | 1.5 | 0.654 | 0.353 | 0.817
5 | QNKEDYAGLKE [GSTO1_Y139] | 1.01 | 0.82 | 2.22 | 1.37 | 1.29 | 0.494 | 1.73 | 0.919 | 1.09 | 1.24 | 1.6 | 0.893 | 1.34 | 0.69 | 0.803 | 0.902
6 | QNKEDYDGLKE [GSTO1_Y139_A140D] | 0.641 | 0.915 | 0.754 | 1.19 | 1.04 | 1.02 | 1.3 | 0.943 | 0.666 | 1.13 | 1.74 | 0.867 | 1.83 | 1.09 | 0.765 | 0.737
7 | QNTGDYCDLYG [PTPN11_Y62_Y63C] | 1.84 | 2.08 | 1.39 | 1.34 | 7.83 | 9.03 | 4.13 | 1.49 | 0.633 | 1.35 | 1.08 | 5.87 | 2.75 | 1.11 | 1.22 | 1.13
8 | QNWELYSEGLG [CNKSR1_Y665_R662W] | 2.08 | 4.32 | 0.869 | 0.751 | 5.04 | 5.52 | 0.746 | 3.04 | 2.26 | 1.13 | 1.07 | 0.744 | 1.37 | 0.958 | 0.628 | 0.771
9 | QPGTDYKIYLY [FN1_Y1970] | 0.804 | 0.86 | 0.792 | 1.04 | 0.759 | 0.939 | 0.846 | 0.715 | 0.501 | 1.69 | 1.55 | 0.705 | 1.74 | 0.741 | 0.466 | 0.753
10 | QQLDEYQKLLD [LMNA_Y359_E361K] | 0.642 | 0.742 | 0.905 | 1.03 | 1.28 | 1.27 | 1.2 | 0.724 | 0.81 | 1.72 | 1.85 | 0.65 | 1.53 | 0.708 | 0.699 | 0.724
11 | QQTFTYDSGIH [JUP_Y22_YF] | 0.95 | 1.85 | 0.896 | 0.999 | 1.33 | 1.35 | 1.42 | 1.18 | 0.793 | 0.985 | 1.78 | 0.984 | 1.8 | 0.673 | 0.563 | 0.809
12 | QRCFVYFFSFL [PTEN_Y176_R173C_YF] | 1.48 | 0.65 | 1.06 | 1.3 | 0.526 | 1.13 | 1.16 | 1.47 | 0.69 | 2.19 | 2.21 | 0.765 | 1.48 | 2 | 1.09 | 1.27
13 | QRIHNYYEHRY [HCN4_Y554_D553N] | 0.769 | 1.33 | 0.65 | 0.791 | 2.88 | 2.91 | 3.62 | 0.68 | 1.62 | 0.724 | 1.63 | 3.79 | 1.36 | 1.71 | 1.7 | 2.06
14 | QRPFVYFFSFL [PTEN_Y176_R173P_YF] | 0.748 | 0.426 | 0.707 | 0.967 | 0.703 | 0.783 | 1.39 | 0.721 | 0.664 | 1.33 | 1.54 | 0.789 | 1.23 | 1.29 | 0.783 | 1.13
15 | QSKGIYFVQLE [MGAT4B_Y262_YF] | 1.54 | 0.936 | 0.713 | 1.63 | 2.44 | 0.972 | 1.41 | 1.1 | 2.38 | 1.88 | 1.71 | 1.09 | 1.51 | 0.96 | 0.658 | 0.854
16 | QYKGKYLAKHN [CASK_Y712_D710G] | 0.519 | 0.752 | 0.819 | 0.934 | 0.699 | 0.705 | 1.29 | 0.658 | 0.835 | 0.472 | 0.979 | 1.01 | 0.984 | 1.42 | 1.06 | 0.792
17 | RAFRRYLLKQK [SCN2A_Y1919_YF] | 0.671 | 0.63 | 0.675 | 0.531 | 0.61 | 0.535 | 0.865 | 0.696 | 0.971 | 0.712 | 0.703 | 0.617 | 0.708 | 0.829 | 0.454 | 0.44

Row | Sequence | phosphorylation enrichment (c-Src) | phosphorylation enrichment (Hck) | phosphorylation enrichment (Fer (mouse)) | phosphorylation enrichment (c-Abl (mouse)) | phosphorylation enrichment (EPHB2) | phosphorylation enrichment (EPHB1) | phosphorylation enrichment (FGFR3) | phosphorylation enrichment (Fyn) | phosphorylation enrichment (MERTK) | phosphorylation enrichment (Jak2) | phosphorylation enrichment (Fes) | phosphorylation enrichment (FGFR1) | phosphorylation enrichment (AncSZ) | SH2 binding enrichment (Grb2 SH2) | SH2 binding enrichment (c-Src SH2) | SH2 binding enrichment (SHP2-C SH2)
18 | RAILNYIASKF [GSTA3_Y74_YF] | 1 | 0.854 | 0.994 | 1.96 | 0.86 | 0.534 | 0.861 | 0.66 | 1.7 | 1.29 | 1.73 | 1.08 | 1.84 | 0.927 | 0.461 | 0.611
19 | RAKLFYQEVPA [METTL11B_Y76] | 0.385 | 1.67 | 1.64 | 0.513 | 1.9 | 2.91 | 2.39 | 0.716 | 6.6 | 0.547 | 1.02 | 2.88 | 1.95 | 0.651 | 0.992 | 0.789
20 | RALCHYFKLNI [ETV6_Y401_R399C_YF] | 0.667 | 0.776 | 0.719 | 1.09 | 0.885 | 0.691 | 0.975 | 0.54 | 0.634 | 1.27 | 1.37 | 0.783 | 1.33 | 1.34 | 1.5 | 2.22
21 | RASGIYFVPKG [APBB1IP_Y340_YF] | 4.75 | 8.1 | 0.731 | 34.3 | 2.37 | 5.1 | 1.71 | 6.15 | 13.8 | 2.91 | 1.2 | 1.71 | 1.17 | 1.12 | 0.935 | 1.11
22 | RDGDRYFKGIV [DCX_Y64_N60D] | 0.382 | 0.437 | 0.316 | 0.485 | 0.427 | 0.343 | 0.491 | 0.308 | 0.374 | 0.609 | 1.1 | 0.574 | 0.427 | 1.16 | 0.537 | 0.606
23 | RDLRTYIMPAH [PNMT_Y256] | 0.623 | 0.682 | 0.419 | 0.772 | 0.815 | 5.27 | 0.518 | 0.577 | 0.572 | 0.893 | 0.866 | 0.694 | 0.921 | 0.965 | 0.777 | 0.734
24 | REGAKYVSHSA [ASS1_Y113_G117S] | 0.667 | 0.457 | 0.504 | 0.818 | 0.468 | 0.414 | 0.854 | 0.454 | 0.593 | 0.691 | 0.785 | 0.473 | 0.764 | 0.878 | 0.473 | 0.561
25 | REHTVYGEPRK [MAGEA4_Y240] | 0.599 | 0.903 | 0.52 | 1.03 | 0.687 | 0.588 | 0.684 | 0.869 | 0.492 | 0.674 | 0.851 | 0.664 | 0.716 | 0.765 | 0.443 | 0.54
26 | RESYKYLPSSL [CXXC1_Y218_F219L] | 0.993 | 0.762 | 0.546 | 1.25 | 0.616 | 0.571 | 0.821 | 0.59 | 0.859 | 1.11 | 1.17 | 1.21 | 1.09 | 1.1 | 0.582 | 0.791
27 | REVVNYVQKRS [RMI1_Y450_N455S] | 0.564 | 0.484 | 0.525 | 0.519 | 0.35 | 0.459 | 0.835 | 0.581 | 0.68 | 0.468 | 1.01 | 0.65 | 0.981 | 0.826 | 0.515 | 0.511
28 | RFLERYIYNRE [HLA-DPB1_Y57] | 0.849 | 1.73 | 0.546 | 0.533 | 0.683 | 0.852 | 0.784 | 0.842 | 0.533 | 0.451 | 0.949 | 0.495 | 0.77 | 1.3 | 1.28 | 1.45
29 | RFLFFYSFLLK [PTEN_Y178_V175L_YF] | 1.41 | 0.631 | 0.765 | 1.51 | 0.574 | 0.984 | 0.754 | 0.79 | 0.782 | 1.53 | 1.78 | 0.885 | 2.12 | 1.58 | 0.808 | 1.29
30 | RGEEPYTKKAL [TTC21B_Y160_K157E] | 0.383 | 0.719 | 0.552 | 0.487 | 0.476 | 0.413 | 0.714 | 0.481 | 0.491 | 0.473 | 0.991 | 0.771 | 0.715 | 0.542 | 0.4 | 0.634
31 | RGGWVYVLHPT [TRMT61A_Y67] | 0.895 | 0.909 | 0.766 | 0.702 | 0.856 | 1.07 | 1.03 | 1.25 | 0.493 | 1.2 | 1.66 | 0.853 | 1.8 | 0.99 | 0.573 | 0.787
32 | RGVAHYILQTF [SLC39A4_Y359_T357A] | 0.743 | 0.685 | 0.554 | 1.13 | 0.724 | 0.718 | 0.628 | 0.636 | 0.583 | 1.33 | 1.34 | 0.456 | 1.48 | 1.73 | 1.16 | 1.71
33 | RHAASYSSDSE [REPS1_Y116] | 0.607 | 0.41 | 0.578 | 0.627 | 0.381 | 0.382 | 0.611 | 0.737 | 0.51 | 1.19 | 0.806 | 0.513 | 0.702 | 0.985 | 0.569 | 0.735
